± gives the uncertainty stated by the source.
Test: self-splicing fitness, log relative to wild type (ln ratio); higher = more splicing; Tetrahymena group I intron in knt gene, E. coli kanamycin selection, DiMSum; sequences stand for … in CUCUCU…GGAGGGAAAAGUUAUCAGGCAUGCACCUGGUAGCUAGUCUUUAAACCAAUAGAUUGCAUCGGUUUAAAAGGCAAGACCGUCAAAUUGCGGGAAAGGGGUCAACAGCCGUUCAGUACCAAGUCUCAGGGGAAACUUUGAGAUGGCCUUGCAAAGGGUAUGGUAAUAAGCUGACGGACAUGGUCCUAACCACGCAGCCAAGUCCUAAGUCAACAGAUCUUCUGUUGAUAUGGAUGCAGUUCACAGACUAAAUGUCGGUCGGGGAAGAUGUAUUCUUCUCAUAAGAUAUAGUCGGACCUCUCCUUAAUGGGAGCUAGCGGAUGAAGUGAUGCAACACUGGAGCCGCUGGGAACUAAUUUGUAUGCGAAAGUAUAUUGAUUAGUUUUGGAGUACUCGUGGUCG
Method in brief: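 The eight P1ex-region nucleotides of an intron in the knt kanamycin-resistance gene on pET-22b(+) were all randomised and the library put into E. coli BL21(DE3). Six replicate transformations were grown overnight at 37°C or 30°C on LB agar with or without 25 μg/mL kanamycin, together with 100 μg/mL carbenicillin, 50 μM IPTG and 0.2% rhamnose. Colonies were pooled and amplicon-sequenced on an Illumina HiSeq 2500. Fitness from DiMSum is the error-weighted combination of wild-type-normalised replicate fold changes, kanamycin over none.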

Sequence | self-splicing fitness (ln) (30 °C) | self-splicing fitness (ln) (37 °C)
AAUCAGCAAUAUUACGACGC | -0.394 ± 0.098 | -0.936 ± 0.11
CUAGAGCAAUAUUACGUACU | -3.83 ± 0.3 | -3.27 ± 0.43
UAACAGCAAUAUUACGUAAA | -2.6 ± 0.089 | -0.884 ± 0.084
CUCAAGCAAUAUUACGAUCU | -3.53 ± 0.26 | -2.59 ± 0.24
GCAUAGCAAUAUUACGCACU | -0.629 ± 0.09 | -0.277 ± 0.13
AAGAAGCAAUAUUACGCCGA | -0.879 ± 0.12 | -0.757 ± 0.15
UCCGAGCAAUAUUACGGACA | -2.33 ± 0.18 | -0.762 ± 0.13
AGAUAGCAAUAUUACGAGUG | -2.72 ± 0.15 | -1.22 ± 0.14
GCUAAGCAAUAUUACGCAAA | -2.6 ± 0.26 | -0.986 ± 0.17
GCAUAGCAAUAUUACGCCAG | -2.88 ± 0.42 | -2.94 ± 0.48
GGUUAGCAAUAUUACGGUGA | -1.49 ± 0.13 | -0.0195 ± 0.13
CAGCAGCAAUAUUACGUAGA | -2.13 ± 0.071 | -1.57 ± 0.097
CGCCAGCAAUAUUACGCAGG | -2.06 ± 0.2 | -2.56 ± 0.26
UGGUAGCAAUAUUACGCCGU | -1.56 ± 0.27 | -1.42 ± 0.36
UAGAAGCAAUAUUACGCAAA | -1.24 ± 0.22 | -1.03 ± 0.31
UCAGAGCAAUAUUACGGAUU | -3.58 ± 0.19 | -2.68 ± 0.23
CGCCAGCAAUAUUACGCCCU | -1.93 ± 0.14 | -0.637 ± 0.13
GGAUAGCAAUAUUACGUUUC | – | -1.84 ± 0.41
UCAAAGCAAUAUUACGUUAU | -3.43 ± 0.18 | -3.37 ± 0.35

Sequence | self-splicing fitness (ln) (30 °C) | self-splicing fitness (ln) (37 °C)
CCGGAGCAAUAUUACGUAGC | -2.74 ± 0.31 | -2.04 ± 0.46
GCUAAGCAAUAUUACGUGAA | -0.92 ± 0.059 | -0.304 ± 0.074
GGAUAGCAAUAUUACGAAGG | -2.12 ± 0.24 | -2.02 ± 0.26
CUGGAGCAAUAUUACGGAAU | – | -2.05 ± 0.36
UAGAAGCAAUAUUACGCUUG | -2.11 ± 0.11 | -1.05 ± 0.12
GCAUAGCAAUAUUACGUGGG | -3.68 ± 0.13 | -2.82 ± 0.11
UUGAAGCAAUAUUACGCCAA | -0.371 ± 0.094 | -0.324 ± 0.11
GGAAAGCAAUAUUACGUGAG | -1.22 ± 0.047 | -0.225 ± 0.069
GUGGAGCAAUAUUACGUUGG | -3.39 ± 0.28 | -3.36 ± 0.43
AACCAGCAAUAUUACGUUCU | -1.15 ± 0.043 | -0.678 ± 0.053
CCGAAGCAAUAUUACGGGAG | -2.67 ± 0.18 | -2.46 ± 0.23
UGUCAGCAAUAUUACGUUGU | -4.25 ± 0.27 | -2.3 ± 0.16
GUGAAGCAAUAUUACGGAUA | -1.37 ± 0.096 | -1.13 ± 0.1
CGCGAGCAAUAUUACGUAGC | -3.66 ± 0.3 | -2.5 ± 0.32
CCGGAGCAAUAUUACGUUGG | -3.57 ± 0.24 | -2.47 ± 0.26
UUCAAGCAAUAUUACGUGAU | -1.8 ± 0.096 | -0.468 ± 0.11
CGAAAGCAAUAUUACGGAUA | -2.86 ± 0.18 | -3 ± 0.19
UGGUAGCAAUAUUACGGAGU | -2.76 ± 0.27 | –
UCUUAGCAAUAUUACGUUUG | -3.07 ± 0.17 | -2.48 ± 0.27
